One molecule from patent publication US20180038857A1 can be followed below.

This test deals with hCXCR3 (human) (UniProt P49682). The test can be described thus: cell-based or functional assay.
hCXCR3 (human), sequence (P49682 whole entry): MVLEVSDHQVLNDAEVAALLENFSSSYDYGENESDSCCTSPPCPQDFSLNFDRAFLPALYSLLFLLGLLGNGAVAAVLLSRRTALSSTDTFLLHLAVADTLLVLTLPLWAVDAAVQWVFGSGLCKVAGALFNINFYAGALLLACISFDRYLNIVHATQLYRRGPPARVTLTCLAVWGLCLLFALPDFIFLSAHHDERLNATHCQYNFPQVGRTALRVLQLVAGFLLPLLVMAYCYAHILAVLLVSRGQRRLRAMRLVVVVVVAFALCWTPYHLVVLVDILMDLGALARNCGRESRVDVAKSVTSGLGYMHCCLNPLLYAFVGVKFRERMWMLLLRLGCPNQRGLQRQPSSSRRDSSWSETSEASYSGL

B1: recombinant native ITAC (ligand, UniProt O14625 22-94, looked up)
chain: FPMFKRGRCLCIGPGVKAVKVADIEKASIMYPSNNCDKIEVIITLKENKGQRCLNPKSKQARLIIKKVERKNF
B1 displayed an EC50, agonist activity in an Aequorin assay of 0.7 nM.
